Data: patent US20240366814A1 (University of California, published 2024)

T1: CUB domain-containing protein 1 (CDCP1), human, on the surface of human bladder cancer cell lines (human, UniProt Q9H5V8 30-836)
T1 construct: whole, on cells; Endogenous CDCP1 on UMUC3, TCC SUP, 5637, UMUC9 and other bladder cancer lines; also called SIMA135; CD318
T1 sequence (looked up): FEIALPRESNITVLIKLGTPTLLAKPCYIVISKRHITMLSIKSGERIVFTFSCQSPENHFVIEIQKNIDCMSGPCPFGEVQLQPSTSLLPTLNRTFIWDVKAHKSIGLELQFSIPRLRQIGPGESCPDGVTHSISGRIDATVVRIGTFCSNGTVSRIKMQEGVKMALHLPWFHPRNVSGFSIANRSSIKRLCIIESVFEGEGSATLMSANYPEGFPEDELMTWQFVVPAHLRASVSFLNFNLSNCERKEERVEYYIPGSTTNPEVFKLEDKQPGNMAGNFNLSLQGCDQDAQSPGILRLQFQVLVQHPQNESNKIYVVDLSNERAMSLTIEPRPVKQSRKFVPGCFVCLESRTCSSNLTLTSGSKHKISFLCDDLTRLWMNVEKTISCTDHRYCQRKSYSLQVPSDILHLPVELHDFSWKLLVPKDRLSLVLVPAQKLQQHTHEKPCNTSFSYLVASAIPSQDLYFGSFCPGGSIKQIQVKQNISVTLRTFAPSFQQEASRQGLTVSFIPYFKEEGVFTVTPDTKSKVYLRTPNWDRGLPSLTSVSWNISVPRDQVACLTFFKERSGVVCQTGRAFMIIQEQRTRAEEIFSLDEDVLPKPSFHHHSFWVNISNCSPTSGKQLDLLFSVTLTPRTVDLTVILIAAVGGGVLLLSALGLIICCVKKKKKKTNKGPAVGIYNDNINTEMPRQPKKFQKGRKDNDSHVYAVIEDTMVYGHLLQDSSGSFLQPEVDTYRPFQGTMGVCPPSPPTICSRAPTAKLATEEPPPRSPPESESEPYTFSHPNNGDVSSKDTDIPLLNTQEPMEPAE

B1: recombinant monoclonal antibody 4A06 (IgG1 format) (antibody, V domains shown)
VH: EVQLVESGGGLVQPGGSLRLSCAASGFNLSYYYIHWVRQAPGKGLEWVASIYSSSSYTSYADSVKGRFTISADTSKNTAYLQMNSLRAEDTAVYYCARAYYGFDYWGQGTLVTVSS
VL: DIQMTQSPSSLSASVGDRVTITCRASQSVSSAVAWYQQKPGKAPKLLIYSASSLYSGVPSRFSGSRSGTDFTLTISSLQPEDFATYYCQQSYYYYPITFGQGTKVEIK
notes: Used unlabelled in flow cytometry, detected with a fluorophore-conjugated secondary antibody; also called CDCP1-002; 4A06 antibody
B2: 125I-labeled 4A06 antibody (antibody, V domains shown)
VH: B1 VH
VL: B1 VL
modifications: radioiodinated with iodine-125; labelled residues not stated
notes: specific activity ~1 uCi/ug, purity >99%); also called ^125I-4A06; 125I-4A06

Assays:
[1] = target: T1, CUB domain-containing protein 1 …; experiment: flow cytometry on human bladder cancer cell lines (5637, HT-1197, HT-1397, UMUC9, 639V, T24, 253JBV, UMUC3, TCCSUP)
Procedure: Flow Cytometry. Cells were trypsinized and washed, and then incubated with either a PE-anti-CDCP1 antibody (Biolegend #324017, 1:100) or 4A06 for 30 minutes on ice. For cells incubated with unlabeled 4A06, after the 30 min incubation, the cells were washed with PBS multiple times and placed in a fluorophore conjugated secondary antibody solution for 30 minutes on ice (1:1000, 109-546-097, Jackson ImmunoResearch). Cells were collected and washed before being placed in PBS and passed through a cell strainer. Cells were analyzed using an Attune NxT Flow and data were analyzed using FlowJo software.
(§1) CDCP1 protein expression in human bladder cancer cell lines representing luminal (5637, HT-1197, HT-1397, UMUC9) and basal subtypes (639V, T24, 253JBV, UMUC3, TCCSUP) was evaluated. […] UMUC3 and TCC SUP had the highest expression of CDCP1, while UMUC9 and 253 JBV had the lowest relative level. Cell surface receptor numbers were further quantified using ¹²⁵I-labeled 4A06 antibody.

[2] = target: T1, CUB domain-containing protein 1 …; experiment: saturation binding of 125I-4A06 on 5637 cells
Procedure: (§2) Saturation binding assays. ¹²⁵I-4A06 was prepared as previously reported (Moroz et al., Clin Cancer Res, 6(14):3608-3615, 2020). The final yield of purified ¹²⁵I-4A06 was ˜60% (specific activity ˜1 μCi/μg) and purity was >99%. UMUC3, TCC SUP, 5637, and UMUC9 cells (0.6×10⁶ cell/well) were seeded on 12-well plates using DMEM (10% FBS). The cells were washed with PBS for the saturation binding assay. Total binding of ¹²⁵I-4A06 was determined by adding it to cell suspensions at seven concentrations from 0.025 nM to 10 nM. Non-specific binding was determined by adding 1000× cold 4A06 to ¹²⁵I-4A06/cell mixtures at three concentrations. Cells were incubated with ˜0.5 μCi ¹²⁵I-4A06 at room temperature for 1 hr, washed with PBS, and lysed by adding 1.0 M NaOH. The bound and unbound radioactive fractions were collected and measured on a Hidex Gamma counter (Turku, FI). Bmax was calculated using Prism v8.0.
as §1

[3] = target: T1, CUB domain-containing protein 1 …; experiment: saturation binding of 125I-4A06 on UMUC3 cells
Procedure: as §2, §1

[4] = target: T1, CUB domain-containing protein 1 …; experiment: saturation binding of 125I-4A06 on UMUC9 cells
Procedure: as §2, §1

[5] = target: T1, CUB domain-containing protein 1 …; experiment: saturation binding of 125I-4A06 on TCC SUP cells
Procedure: as §2, §1

Binder | binding result [1] | Kd [2] [nM] | Kd [3] [nM] | Kd [4] [nM] | Kd [5] [nM]
B1 | binds |  |  |  | 
B2 |  | 0.284 | 1.84 | 0.181 | 0.583
